# US20250250357A1 (NANJING ZAIMING PHARMACEUTICAL, published 2025)
# Key:
# [1] = molecular target: T1, human MSLN-hFc protein (Acro, Cat. No. MSN-H5253) (human, UniProt Q13421 296-580); experiment: ELISA on coated antigen, antibody 0.0001 nM
# T1 construct: the method names the coated protein as human MSLN-hFc (Acro); also called human MSLN full-length protein
# [2] = molecular target: T1, human MSLN-hFc protein (Acro, Cat. No. …); experiment: ELISA on coated antigen, antibody 10 nM
# [3] = molecular target: T1, human MSLN-hFc protein (Acro, Cat. No. …); experiment: ELISA on coated antigen, antibody 0.1 nM
# human MSLN-R3 protein [4] = molecular target: T2, human MSLN-R3 protein (human, UniProt Q13421 487-598); experiment: ELISA on coated antigen, antibody 0.1 nM
# T2 construct: also called hMSLN-R3
# T2 sequence (Q13421 495-606, form in doubt): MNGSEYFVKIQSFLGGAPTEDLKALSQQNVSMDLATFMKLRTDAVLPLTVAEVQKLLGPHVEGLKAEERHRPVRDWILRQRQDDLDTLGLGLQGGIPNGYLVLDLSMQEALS
# human MSLN-R3 protein [5] = molecular target: T2, human MSLN-R3 protein; experiment: ELISA on coated antigen, antibody 0.001 nM
# [6] = molecular target: T1, human MSLN-hFc protein (Acro, Cat. No. …); experiment: ELISA on coated antigen, antibody 100 nM
# [7] = molecular target: T1, human MSLN-hFc protein (Acro, Cat. No. …); experiment: ELISA on coated antigen, antibody 1 nM
# [8] = molecular target: T1, human MSLN-hFc protein (Acro, Cat. No. …); experiment: ELISA on coated antigen, antibody 0.01 nM
# human MSLN-R3 protein [9] = molecular target: T2, human MSLN-R3 protein; experiment: ELISA on coated antigen, antibody 10 nM
# human MSLN-R3 protein [10] = molecular target: T2, human MSLN-R3 protein; experiment: ELISA on coated antigen, antibody 1 nM
# human MSLN-R3 protein [11] = molecular target: T2, human MSLN-R3 protein; experiment: ELISA on coated antigen, antibody 100 nM
# [12] = molecular target: T1, human MSLN-hFc protein (Acro, Cat. No. …); experiment: ELISA on coated antigen, antibody 0.001 nM
# human MSLN-R3 protein [13] = molecular target: T2, human MSLN-R3 protein; experiment: ELISA on coated antigen, antibody 0.01 nM
# human MSLN-R3 protein [14] = molecular target: T2, human MSLN-R3 protein; experiment: ELISA on coated antigen, antibody 0.0001 nM
# [15] = molecular target: T3, human MSLN-FL-his protein (human, UniProt Q13421 296-580); experiment: ELISA on coated antigen, antibody 0.1 nM
# T3 construct: Made in HEK293E cells, purified on nickel column; it is put last here; also called human MSLN full-length protein; hMSLN-FL-his; not shown: His tag
# T3 sequence (Q13421 other isoform, or with tags, fused parts or gaps): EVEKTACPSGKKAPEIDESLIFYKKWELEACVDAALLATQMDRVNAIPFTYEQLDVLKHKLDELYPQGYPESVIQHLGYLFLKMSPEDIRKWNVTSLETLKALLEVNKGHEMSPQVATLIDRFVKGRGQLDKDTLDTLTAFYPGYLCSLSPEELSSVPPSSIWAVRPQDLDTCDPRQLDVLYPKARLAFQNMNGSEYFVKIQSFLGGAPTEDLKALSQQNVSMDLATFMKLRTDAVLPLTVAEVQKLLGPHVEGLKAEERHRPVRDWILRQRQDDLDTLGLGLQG
# [16] = molecular target: T3, human MSLN-FL-his protein; experiment: ELISA on coated antigen, antibody 0.0001 nM
# [17] = molecular target: T3, human MSLN-FL-his protein; experiment: ELISA on coated antigen, antibody 1 nM
# [18] = molecular target: T3, human MSLN-FL-his protein; experiment: ELISA on coated antigen, antibody 100 nM
# [19] = molecular target: T3, human MSLN-FL-his protein; experiment: ELISA on coated antigen, antibody 10 nM
# [20] = molecular target: T3, human MSLN-FL-his protein; experiment: ELISA on coated antigen, antibody 0.01 nM
# [21] = molecular target: T3, human MSLN-FL-his protein; experiment: ELISA on coated antigen, no antibody (blank, column 'none')
# [22] = molecular target: T3, human MSLN-FL-his protein; experiment: ELISA on coated antigen, antibody 0.001 nM
# T1 sequence (Q13421 other isoform, or with tags, fused parts or gaps limits assumed): as the sequence (Q13421 other isoform, or with tags, fused parts or gaps) above, with P14R counted along it
OD450 [1],OD450 [2],OD450 [3],OD450 (human MSLN-R3 protein [4]),OD450 (human MSLN-R3 protein [5]),OD450 [6],OD450 [7],OD450 [8],OD450 (human MSLN-R3 protein [9]),OD450 (human MSLN-R3 protein [10]),OD450 (human MSLN-R3 protein [11]),OD450 [12],OD450 [15],OD450 [16],OD450 [17],OD450 [18],OD450 [19],OD450 [20],OD450 [21],OD450 [22],Binder,also measured
–,–,–,–,–,–,–,–,–,–,–,–,2.22 OD,0.32 OD,2.42 OD,2.94 OD,2.53 OD,1.26 OD,0.05 OD,0.49 OD,"S009-F8-12.13 (antibody, human IgG1, kappa, V domains shown, Human-murine chimeric antibody, human IgG1 heavy and kappa light constant regions) VH: QVQLQQPGAELVKPGASVKLSCKASGYTFTSYWMHWVKQRPGQGLEWIGMIHPNSGSTNYNEKFKSKATLTVDKSSSTAYMQLSSLTSEDSAVYYCARRTPIITLVGHWYFDVWGTGTTVTVSS VL: DIVMTQSHKFMSTSVGDRVSITCKASQDVGTAVAWYQQKPGQSPKLLIYWASTRHTGVPDRFTGSGSGTDFTLTISNVQSEDLADYFCQQYSSYPLTFGAGTKLELKR",–
–,–,–,–,–,–,–,–,–,–,–,–,1.11 OD,0.05 OD,2.23 OD,2.64 OD,2.47 OD,0.24 OD,0.05 OD,0.08 OD,"S009-F8-15.19 (antibody, human IgG1, kappa, V domains shown, Human-murine chimeric antibody, human IgG1 heavy and kappa light constant regions) VH: EFQLQQSGPELVKPGASVKISCKASGYSFTDYNMNWVKQSNGKSLEWIGIINPYYGTTSNNQNFKGKATLTVDQSSSTAYMQLNSLTSDDSAVYYCARWLRRDAMDYWGQGTSVTVSS VL: DIVMTPSHKFMSTSVGDRVSIACKASQDVGSSVAWYQQKPGQSPKLLIYWTSTRHTGVPDRFTGSGSGTDFTLTISNVQSEDLADYFCQQYSSYPWTFGGGTKLEIKR",–
–,–,–,–,–,–,–,–,–,–,–,–,1.18 OD,0.05 OD,2.05 OD,2.69 OD,2.34 OD,0.24 OD,0.05 OD,0.07 OD,"S009-F8-13.8 (antibody, human IgG1, kappa, V domains shown, Human-murine chimeric antibody, human IgG1 heavy and kappa light constant regions) VH: EFQLQQSGPELVKPGASVKISCKASGYSFTDYNMNWVKQTNGKSLEWIGIINPNYGTSSYNQKFKGKATLTVDQSSSTAYMQLNSLTSEDSAVYYCARVGRDNSGFDYWGQGTTLTVSS VL: QIVLTQSPAIMSASPGEKVTMTCSASSSVSYMYWYQQKPGSSPRLLIYDTSNLASGVPVRFSGSGSGTSYSLTISRMEAEDAATYYCQQWSSYPPTFGSGTELEIKR",–
–,–,–,–,–,–,–,–,–,–,–,–,1.97 OD,0.1 OD,2.75 OD,3.15 OD,3.15 OD,0.91 OD,0.05 OD,0.23 OD,"S009-F8-8.22 (antibody, human IgG1, kappa, V domains shown, Human-murine chimeric antibody, human IgG1 heavy and kappa light constant regions) VH: EVQLQQSGPELVKPGASVKMSCKASGYTFTDYIIHWVKQSHGKSLEWIAYIFPNNGGTGYNQKFRGKATLTVNKSSSTAYMELRSLTSEDSAVYYCARWRLRQYFDVWGTGTTVTVSS VL: DIVMTQSQKFMSTIVGDRVSITCKASQNVGTAVAWYQQKPGQSPKLLIYSASNRYTGVPDRFTGSGSGTDFTLTISNMQSEDLADYFCQQYSSYPLTFGGGTKLEIKR",–

# The remaining lines, values behind:
Binder,OD450 [1],OD450 [2],OD450 [3],OD450 (human MSLN-R3 protein [4]),OD450 (human MSLN-R3 protein [5]),OD450 [6],OD450 [7],OD450 [8],OD450 (human MSLN-R3 protein [9]),OD450 (human MSLN-R3 protein [10]),OD450 (human MSLN-R3 protein [11]),OD450 [12],OD450 [15],OD450 [16],OD450 [17],OD450 [18],OD450 [19],OD450 [20],OD450 [21],OD450 [22],also measured
"F7.44.20-H16 (scFv, not shown: small tags and cut ends, also called S009-F7.44.20 humanized antibody VH2a + VL4) scFv: EVQLVQSGAEVKKPGASVKVSCKASGYTFTDYNMDWVRQAPGQGLEWMGDINPSTGGTIYNQKFSGRVTMTEDKSASTVYMELSSLRSEDTAVYYCARRRIGTGYFDVWGQGTTVTVSSGGGGSGGGGSGGGGSEIVLTQSPATLSLSPGERATLSCSASSSVISSYLSWYQQKPGSSPRLLIYRTSNLASGIPARFSGSGSGTDYTLTISSLEPEDFAVYYCHQWSSFPYTFGGGTKVEIK",0.05 OD450,2.4 OD450,0.16 OD450,0.1 OD450,0.04 OD450,2.97 OD450,1.12 OD450,0.05 OD450,1.6 OD450,0.72 OD450,1.8 OD450,0.05 OD450,–,–,–,–,–,–,–,–,OD450 (human MSLN-R3 protein [13]): 0.06 OD450; OD450 (human MSLN-R3 protein [14]): 0.04 OD450
"S009-F8-7.5 (antibody, human IgG1, kappa, V domains shown, Human-murine chimeric antibody, human IgG1 heavy and kappa light constant regions) VH: DVQLQESGPGLVKPSQSLSLTCSVTGYSITSGYYWNWIRQFPGNKLEWMAYIRYDGSNNYNPSLKNRISIIRDTSKNQFFLRLNSVTTEDTATYYCAKSYYGMDDWGQGISVTVSS VL: DIQMTQSPASLSASVGETVTITCRTSGDIHNYLAWYQQKQGKSPQLLVYKAKTLENGVPSRFTGSGSGTQFSLKIDSLQPEDFGTYYCQHFWTTPYTFGGGTKLEIKR",–,–,–,–,–,–,–,–,–,–,–,–,1.88 OD,0.06 OD,2.55 OD,3.22 OD,2.73 OD,0.49 OD,0.05 OD,0.12 OD,–
"F7.44.20-VL-VH (scFv, not shown: small tags and cut ends, also called S009-F7.44.20 parental variable regions, VL-VH order) scFv: QIVLTQSPALMSASPGEKVTLTCSASSSVISSYLSWYQQKPGSSPKLLIYRTSNLASGVPARFSGSGSGTSYSLTISSMEAEDAASYFCHQWSSFPYTFGGGTKLEIKGGGGSGGGGSGGGGSEVQLQQSGPELVKPGASVKIPCKASGYTFTDYNMDWVKQSHGKSLEWIGDINPSTGGTIYNQKFNGKATLTEDKSASTVYMEFRSLTSDDTAVYYCARRRIGTGYFDVWGTGTTVTVSS",0.04 OD450,2.14 OD450,0.11 OD450,0.08 OD450,0.04 OD450,2.98 OD450,1.06 OD450,0.05 OD450,1.68 OD450,0.55 OD450,1.8 OD450,0.2 OD450,–,–,–,–,–,–,–,–,OD450 (human MSLN-R3 protein [13]): 0.05 OD450; OD450 (human MSLN-R3 protein [14]): 0.05 OD450
"F7.44.20 (scFv, not shown: small tags and cut ends, also called S009-F7.44.20 (parental variable regions, in the humanized-antibody ELISA)) scFv: EVQLQQSGPELVKPGASVKIPCKASGYTFTDYNMDWVKQSHGKSLEWIGDINPSTGGTIYNQKFNGKATLTEDKSASTVYMEFRSLTSDDTAVYYCARRRIGTGYFDVWGTGTTVTVSSGGGGSGGGGSGGGGSQIVLTQSPALMSASPGEKVTLTCSASSSVISSYLSWYQQKPGSSPKLLIYRTSNLASGVPARFSGSGSGTSYSLTISSMEAEDAASYFCHQWSSFPYTFGGGTKLEIK",0.04 OD450,2.48 OD450,0.22 OD450,0.07 OD450,0.04 OD450,2.97 OD450,0.83 OD450,0.05 OD450,1.68 OD450,0.39 OD450,1.96 OD450,0.17 OD450,–,–,–,–,–,–,–,–,OD450 (human MSLN-R3 protein [13]): 0.04 OD450; OD450 (human MSLN-R3 protein [14]): 0.04 OD450
"S009-F8-4.5 (antibody, human IgG1, kappa, V domains shown, Human-murine chimeric antibody, human IgG1 heavy and kappa light constant regions) VH: QVQLQQPGAELVKPGASVKLSCKASGYTFTIYWMHWVKQRPGQGLEWIGMIHPNSGNTNYNEKFKSKATLTVDKSSSTAYMQLSSLTSEDSAVYYCSLIHWYFDVWGTGTTVTVSS VL: QIVLTQSPAIMSASPGEKVTMTCSASSSVSYMYWYQQKPGSSPRLLIYDTSNLASGVPVRFSGSGSGTSYSLTISRMEAEDAATYYCQQWSSYPLTFGAGTKLELKR",–,–,–,–,–,–,–,–,–,–,–,–,1.31 OD,0.07 OD,2.8 OD,2.94 OD,2.79 OD,0.18 OD,0.06 OD,0.1 OD,–
"S009-F8-5.15 (antibody, human IgG1, kappa, V domains shown, Human-murine chimeric antibody, human IgG1 heavy and kappa light constant regions) VH: QVQLQQPGTELVKPGASVKLSCKASGYTFTSYWMHWVKQRPGQGLEWIGHSNPSNGGTNYNEKFKSKATLTVDKSSSTAYMQLSSLTSEDSAVYYCARWVRGSNYEYFDVWGTGTTVTVSS VL: DIVMTQSQKFMSTTVGDRVSIICKASQNVGSAVAWCQQKPGQSPKLLIYSASNRYTGVPDRFTGSGSGTDFTLTISNMQSEDLADYFCQQYSSYPLTFAGGTKLEIKR",–,–,–,–,–,–,–,–,–,–,–,–,1.53 OD,0.05 OD,2.51 OD,3.16 OD,2.75 OD,0.34 OD,0.05 OD,0.08 OD,–
